Data: the nanobody polyreactivity screen of Harvey et al. (2022)

Test: yeast display, Sf9 membrane polyspecificity reagent, FACS + sequencing; frameworks hold sequencing errors
In short: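 Sorting gates, low and high (top ~1%), were placed on anti-HA fluorescence to track expression and on streptavidin fluorescence to track reagent binding. A clone's polyreactivity label is taken from the gate it came out of. The reagent was 10% biotinylated, detergent-solubilized Sf9 membrane, applied for 1 hour at 4 °C to galactose-induced yeast display cells.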

QVQLVESGGGLVQAGGSLRLSCAASGRIFADYAMGWYRQAPGKERELVAAIDWSDGSTKYADSVKGRFTISRDKAKNTVYLQMNSLKPEDTAVNYCAADYWPRDGLGWWYDYWGQGTQVTVSS
polyreactivity (PSR sort gate): low polyreactivity

QGQRVESGGVLVQAGGSLRLRCAASGSTFSRYDMGWYRQAPGKERELVATITRAGRTYYADSVKGRFTISRDNAKNTVYLQMNSLIPEDTAVYYCAAELYYWTYVRFDYWGQGTQVTVSS
polyreactivity (PSR sort gate): low polyreactivity

QVQLVESGGGLVQAGGSLRLSCAASGRIFGYYVMGWYRQAPGKERELVAAISRSGGSTYYADSVKGRFTISRDNAKNTVYLEMNSLKPEDTAVYYCANYSPRYPNYDYWGQGTQVTVSS
polyreactivity (PSR sort gate): high polyreactivity

QVQLVESGGGLVQAGGSLRISCAASGRTFRKYGMGWYRQAPGKERELLAAITRSGDSTYYADSVKARFTISRDNAMNTVYLQMNSLKPEDTAVYYCNTDGPRTYDTWEYDYWGQGTQVTVSS
polyreactivity (PSR sort gate): high polyreactivity

QVQLVESGGGLVQAGGSLRLSCAASGSIFYRNVMGWYRQAPGKERELVASINFSGGSTYYADCVKGRFTISRDNAKNTVYLQMNSLKPEDTAVYYCAARTVHIYTRMYYWGQGTQVTVSS
polyreactivity (PSR sort gate): high polyreactivity

QVQLVESGGGLVQAGGSLRLSCAASGRTFALYAMGWYRQAPGKERELVAAISSGGSTYYADSVKGRFTISRDNAKNTVYLQMNSLKPEDTAVYYCNARPKWGNRQSVRGYYILSPGGRMNYWGQGTQVTVSS
polyreactivity (PSR sort gate): high polyreactivity

QDQLVESGGGLVQAGGSLSLSCAASGQTFYQYAMGWYRQAPGKERELVAAISKSAGSTYYADSVKGRFTISRDNAKNTVYLQMNSLKPEDTAVYYCVARVLRLRYDYWGQGTQVSVSS
polyreactivity (PSR sort gate): high polyreactivity

QVQLVESGGGLVQAGGSLRLSCAASGSIFKVYAMGWYRQAPGKEREFVAAITSSDSNTNYADSVKGRFTISRDNAKNTVYLQMNSLKPEDTAVYYCNARIYTRRYVPHYGFNYWGQGTQVTVSS
polyreactivity (PSR sort gate): low polyreactivity

QVQLVESGGGLVHAGGSLRLSCAASGFTFGGYAMGWYRQAPGIEREFVAAISSSGGRTYYADSVKRRFTISRDNAKNTVYLPMNSLKPEDTAVYDCNVGQYLRARRPVDSWGQGTQVSVSS
polyreactivity (PSR sort gate): high polyreactivity

QVQLVESGGGLVQAGGSLRLSCAASGRTFRNNTMGCYRQAPGKERELVATITGSGGSTYYADSVKGRFTISRDNSKNTVYLQMNSLKPEDTAVYYCAAVGDQNEYVYWGQGTQVTVSS
polyreactivity (PSR sort gate): low polyreactivity

QVQLVESGAGLVQAGGSLRLSCAASGFIFNRYAMGWYRQAPGKERELVAAIRGSGGSTYADSVKGRFTISRDNAKNTVYLQMNSLKPEDTAVYYCNKERPRRNGQVARYDYWGQGTQVTVSS
polyreactivity (PSR sort gate): low polyreactivity

QVQLVESGGGLVQAGGSLRLSCAASGSTFASNMGWYRQAPGKERELVAGIRSSGSTYYADSVKGRFTISRDNAKNTVYLQMNSLKPEDTAVYSCNKGDYRTYPYDYWGQGTQVTVSS
polyreactivity (PSR sort gate): low polyreactivity

QVQLVESGGGLVQAGGSLRLSCAASGSTFVRYDMGWYRQAPGKERELVADISWSGVSTYADSVKGRFTISRDNAKNTVYLQMNSLIAEDTAVYYCAKDSDLYQRGGYYWGQGTQVTVSS
polyreactivity (PSR sort gate): low polyreactivity

QVQLEESGGGLVQAGGSLRLSCAASGRIFYHYAMGWYRTAPGKERELVAAITSSGAGTYYADSVKGRFTISRDNAKNTVYLQMNSLKPEDTAVYYCAADASRRYRYWYDYWGQGTQVTVSS
polyreactivity (PSR sort gate): high polyreactivity

QVQLVESGGGLVQAGGSLRLSCAASGLIFGLYSMGWYRQAPGKERELVAAISYRTDSTYADSVKGRFTISRDNAKNTVYLQMNSLKPEDTAVYYCAADLRVSVRYYYWGQGTQVTVSW
polyreactivity (PSR sort gate): low polyreactivity

QVQLVESGGGLVQAGGSLRLSCAASGGTFQWNAMGWYRQAPGNERELVAAITSGGRTNYADSVKGRFTISRDNAKTTVSFQLNSLKPEDTAVYYCAATAWDRYIDYDYWGQGTQETVSS
polyreactivity (PSR sort gate): high polyreactivity

QVQLVESGGGLVQAGASLRLSCAASGRTIYANAMGWYIQAPGKERELVAAISRRGGNTYYADSVKGRFTISRDNAKNTVYLQMNRLKPEDTAVYYCYAYGGGDYWGQGTQVTVSS
polyreactivity (PSR sort gate): high polyreactivity

QVQLVESGGGLVQAGGSLRLSCAASGLIFDVYDMGWYRQAPGKERELVAAISTTGGSTFYADSVKGRFTISRDNAKNTVYLQMYSLKPEDTAVYYCNADWAPTGFSGGYPYDYWGQGTQVTVSS
polyreactivity (PSR sort gate): high polyreactivity

QVQLVESGGGLVQAGGSLRLSCAASGFTFGGYAMGWYRQAPGKERELVAAIRSTGDTTYYADSVKGRFTISRDNAKNTVYVQMNSLKPEDTAVYYCNADLSRDNDFDYWGQGTQVTVSS
polyreactivity (PSR sort gate): low polyreactivity

QVQLVESGGGLVQAGGSLRLSCAASGRIIGLYTMGWYRQAPGKERELVAAINIRGTRTYYADSVKGRFTISRDNAKNTVYLQMTSLKPEDTAVYYCNAYPKSWELDYWGLGTQVTVSS
polyreactivity (PSR sort gate): high polyreactivity

QVQLVESGGPLVQAGGSLRLSFAACGFTLWSYSLGWYRQAPGKESELVAAINSRGGRTSYADSVKGRFTISRDNAKNTVYLQINRLKPEDTAVYYCATDPISRARLYGQRDYWGQGTQVTVSS
polyreactivity (PSR sort gate): high polyreactivity

QVQLVESGGGLVQAGGSLRLSCAASGRTFFFYAMGWYRQAPGKERELVASITWSGGTRTYYADSVKGRFTISRDNAKNTVYLQMNSLKPEDTAFYYCAATDSSYWFNRYGGKYYYWGQGTQVTVSS
polyreactivity (PSR sort gate): high polyreactivity

QVQLVESGGGLVQAGGSLRLSCAASGFIFYYNAMGWYRQAPGKERELVAAISTDGGSTYYADSVKGRFTISRDNAKNTVYLQMNSLNPEDTAVYYCAAKRYKRYDYWGQGTQVTVSS
polyreactivity (PSR sort gate): low polyreactivity

QVQLVESGGCLVQAGGSLRLSCAASGRIFQSYAMGWYRQAPGKESELVAAISQSGGSTYYADSVQGRFTISRDNAKNTVYVQMNSLKPEDTAVYYCAARSRWYKRYDYWGQGTQVTVSS
polyreactivity (PSR sort gate): low polyreactivity

QVQLVESGGGLVQAGGSLRLSCAASGLIFRYYAMGWYRQAPGKERELVATIRGGGSTYYADSVKGRFTISRDNAKNTVYLQMNSLKPEDTAVYYCAADPYSYGARGSRGDYWGQGTQVTVSS
polyreactivity (PSR sort gate): low polyreactivity

QVQLVESGGGLVQAGGSLRLSCAASGSTFYRNAMGWYRQAPGKERELVAGISWRGGSTYYADSVKGRFTISRDNAKNTVYLQMNSLKPEDTAVYYCNTLGAGGYSSPADYYYWGQGTQVTVSS
polyreactivity (PSR sort gate): high polyreactivity

QVQLVESGGGLVQAGGSLRLSCAASGTTIKYYAMGWSRQAPGKERELVARITSDGGSTFYADSVKGRFTISRDNAKNTVYLQMNSLKPEDTAVYYCNTAYAFRHWWFYPMDYWGQGTQVTVSS
polyreactivity (PSR sort gate): high polyreactivity

QVQIVESGGGLVQAGGSLRLSCAASGIIFDGYAMGWYRQAPGKERELVAGITIGDITYYADSVKGRFTISRDNAKITVYLQMNSLKPEDTAVYYCAADSYYYQTAYDYWGQGTQVTVSS
polyreactivity (PSR sort gate): low polyreactivity

QVQLVESGGGLVKAGGSLRLSCAASGYTFRSYAMGWYRQAPGKEREKVARITFRGTSTYADSVKGRFTISRDNAKNTVYLQMNSLKPEESAVYYCNTSRAPWGNGYKRYDYWGQGTQVTVSS
polyreactivity (PSR sort gate): low polyreactivity

QVQLVESGGGLVQAGGSLRLSCAASGSIFLYNAMGWYRQAPGKERELVADITSAGRTYYADSVKGRFTISRDNAKNTVYLQMNSLKPEDTAVYYCNKDYHYHFSWYGYWGQGTQVTVSS
polyreactivity (PSR sort gate): low polyreactivity

QVQLVESGGGLVQAGGSLRLSCAASGRLFIIYAMGWYRQAPGKERELVAAINRGATTNYADSVKGRFTISRDNAKYTVYLQMNSLKPEDTAVYYCAARGVAKLRRVGYWGQGTQVTVSS
polyreactivity (PSR sort gate): high polyreactivity

QVQLVESGGGIVQAGGSLRLSCAASGRTFYYYAMGWYRQAPGKERELVASISWSGGSTYYADSVKGRFTISRDNAKNTVYLQMNSLKPEDTAVYYCNAQYHTYRWLYAVYLSGDYWGQGTQVTVSS
polyreactivity (PSR sort gate): low polyreactivity
